Assay results published in patent EP4725969A1 (Latticon (Suzhou) Biopharmaceuticals Co., Ltd., dated 2024).

Target: T1, recombinant human HER2 extracellular domain protein (human, UniProt P04626 23-652)
T1 construct: range 23-652; Range is printed for the immunogen/panning protein; also called ErbB2; recombinant HER2 protein
Assay: BLI, Protein A capture

B1: 2126-Hu-H22 (antibody, IgG1, V domains shown)
VH: QVQLVQSGGELKKPGASVKVSCKASGYTFTDYSMHWVRQAPGQGLEWMGWINTETGEPTYADDFKGRFVFSLDTSVSTAYLQISSLKAEDTAVYFCVRVGRYDYAMDYWGQGTTVTVSS
VL: DIQMTQSPSSLSASVGDRVTITCKASQDVYTAVAWYQQKPGKAPKLLINSASYRYTGVPSRFSGSGSGTDFTLTISSLQPEDFATYYCQQHYSTPPTFGGGTKVEIK
notes: IgG1/Cκ
B1 gave a Kd of 5.38 nM, a koff of 0.000543 s⁻¹ and a kon of 101000 M⁻¹ s⁻¹.

B2: 2126-Hu-H27 (antibody, IgG1, V domains shown)
VH: QVQLVQSGSELKKPGASVKVSCKASGYTFTDYSMHWVRQAPGQGLEWMGWINTGTGEPTYADDFKGRFVFSLDTSVSTAYLQISSLKAEDTAVYFCVRVGRYDYAMDYWGQGTTVTVSS
VL: DIQMTQSPSSLSASVGDRVTITCKASQDVYTAVAWYQQKPGKAPKLLINSASYRYTGVPSRFSGSGSGTDFTLTISSLQPEDFATYYCQQHYSTPPTFGGGTKVEIK
notes: IgG1/Cκ
In the case of B2, the Kd is reported as 1.67 nM, the koff is reported as 0.000164 s⁻¹ and the kon is reported as 97900 M⁻¹ s⁻¹.

B3: 2126-Hu-H32 (antibody, IgG1, V domains shown)
VH: QVQLVQSGSELKKPGASVKVSCKASGYTFTDYSMHWVRQAPGQGLEWMGWINTETGSPTYADDFKGRFVFSLDTSVSTAYLQISSLKAEDTAVYFCVRVGRYDYAMDYWGQGTTVTVSS
VL: DIQMTQSPSSLSASVGDRVTITCKASQDVYTAVAWYQQKPGKAPKLLINSASYRYTGVPSRFSGSGSGTDFTLTISSLQPEDFATYYCQQHYSTPPTFGGGTKVEIK
notes: IgG1/Cκ
For B3, the Kd was 8.96 nM, the koff was 0.000998 s⁻¹ and the kon was 111000 M⁻¹ s⁻¹.

B4: 2126-Hu-H29 (antibody, IgG1, V domains shown)
VH: QVQLVQSGSELKKPGASVKVSCKASGYTFTDYSMHWVRQAPGQGLEWMGWINTITGEPTYADDFKGRFVFSLDTSVSTAYLQISSLKAEDTAVYFCVRVGRYDYAMDYWGQGTTVTVSS
VL: DIQMTQSPSSLSASVGDRVTITCKASQDVYTAVAWYQQKPGKAPKLLINSASYRYTGVPSRFSGSGSGTDFTLTISSLQPEDFATYYCQQHYSTPPTFGGGTKVEIK
notes: IgG1/Cκ
Binder B4 has a Kd of 2.61 nM, a koff of 0.000246 s⁻¹ and a kon of 94300 M⁻¹ s⁻¹.

B5: 2126-Hu-H30 (antibody, IgG1, name in Kabat numbering, V domains shown)
VH: QVQLVQSGSELKKPGASVKVSCKASGYTFTDYSMHWVRQAPGQGLEWMGWINTETGNPTYADDFKGRFVFSLDTSVSTAYLQISSLKAEDTAVYFCVRVGRYDYAMDYWGQGTTVTVSS
VL: DIQMTQSPSSLSASVGDRVTITCKASQDVYTAVAWYQQKPGKAPKLLINSASYRYTGVPSRFSGSGSGTDFTLTISSLQPEDFATYYCQQHYSTPPTFGGGTKVEIK
notes: IgG1/Cκ
For B5, the Kd was 13.1 nM, the koff was 0.0015 s⁻¹ and the kon was 115000 M⁻¹ s⁻¹.

B6: 2126-Hu-H26 (antibody, IgG1, name in Kabat numbering, V domains shown)
VH: QVQLVQSGSELKKPGASVKVSCKASGYTFTDYSMHWVRQAPGQGLEWMGWINTDTGEPTYADDFKGRFVFSLDTSVSTAYLQISSLKAEDTAVYFCVRVGRYDYAMDYWGQGTTVTVSS
VL: DIQMTQSPSSLSASVGDRVTITCKASQDVYTAVAWYQQKPGKAPKLLINSASYRYTGVPSRFSGSGSGTDFTLTISSLQPEDFATYYCQQHYSTPPTFGGGTKVEIK
notes: IgG1/Cκ
Binder B6 has a Kd of 11.1 nM, a koff of 0.00119 s⁻¹ and a kon of 107000 M⁻¹ s⁻¹.

B7: 2126-Hu-H33 (antibody, IgG1, V domains shown)
VH: QVQLVQSGSELKKPGASVKVSCKASGYTFTDYSMHWVRQAPGQGLEWMGWINTETGEPTYADKFKGRFVFSLDTSVSTAYLQISSLKAEDTAVYFCVRVGRYDYAMDYWGQGTTVTVSS
VL: DIQMTQSPSSLSASVGDRVTITCKASQDVYTAVAWYQQKPGKAPKLLINSASYRYTGVPSRFSGSGSGTDFTLTISSLQPEDFATYYCQQHYSTPPTFGGGTKVEIK
notes: IgG1/Cκ
In the case of B7, the Kd is reported as 2.83 nM, the koff is reported as 0.00031 s⁻¹ and the kon is reported as 109000 M⁻¹ s⁻¹.

B8: 2126-Hu-H28 (antibody, IgG1, V domains shown)
VH: QVQLVQSGSELKKPGASVKVSCKASGYTFTDYSMHWVRQAPGQGLEWMGWINTYTGEPTYADDFKGRFVFSLDTSVSTAYLQISSLKAEDTAVYFCVRVGRYDYAMDYWGQGTTVTVSS
VL: DIQMTQSPSSLSASVGDRVTITCKASQDVYTAVAWYQQKPGKAPKLLINSASYRYTGVPSRFSGSGSGTDFTLTISSLQPEDFATYYCQQHYSTPPTFGGGTKVEIK
notes: IgG1/Cκ
B8 gave a Kd of 3.08 nM, a koff of 0.00035 s⁻¹ and a kon of 114000 M⁻¹ s⁻¹.

B9: 2126-Hu-H34 (antibody, IgG1, V domains shown)
VH: QVQLVQSGSELKKPGASVKVSCKASGYTFTDYSMHWVRQAPGQGLEWMGWINTETGEPTYADNFKGRFVFSLDTSVSTAYLQISSLKAEDTAVYFCVRVGRYDYAMDYWGQGTTVTVSS
VL: DIQMTQSPSSLSASVGDRVTITCKASQDVYTAVAWYQQKPGKAPKLLINSASYRYTGVPSRFSGSGSGTDFTLTISSLQPEDFATYYCQQHYSTPPTFGGGTKVEIK
notes: IgG1/Cκ
B9 was tested, and the Kd was 4.31 nM, the koff was 0.000454 s⁻¹ and the kon was 105000 M⁻¹ s⁻¹.

B10: 2126-Hu-H25 (antibody, IgG1, V domains shown)
VH: QVQLVQSGSELKKPGASVKVSCKASGYTFTDYSMHWVRQAPGQGLEWMGWINTNTGEPTYADDFKGRFVFSLDTSVSTAYLQISSLKAEDTAVYFCVRVGRYDYAMDYWGQGTTVTVSS
VL: DIQMTQSPSSLSASVGDRVTITCKASQDVYTAVAWYQQKPGKAPKLLINSASYRYTGVPSRFSGSGSGTDFTLTISSLQPEDFATYYCQQHYSTPPTFGGGTKVEIK
notes: IgG1/Cκ
In the case of B10, the Kd is reported as 7.57 nM, the koff is reported as 0.000749 s⁻¹ and the kon is reported as 99000 M⁻¹ s⁻¹.

B11: 2126-Hu-H35 (antibody, IgG1, V domains shown)
VH: QVQLVQSGSELKKPGASVKVSCKASGYTFTDYSMHWVRQAPGQGLEWMGWINTETGEPTYADDVKGRFVFSLDTSVSTAYLQISSLKAEDTAVYFCVRVGRYDYAMDYWGQGTTVTVSS
VL: DIQMTQSPSSLSASVGDRVTITCKASQDVYTAVAWYQQKPGKAPKLLINSASYRYTGVPSRFSGSGSGTDFTLTISSLQPEDFATYYCQQHYSTPPTFGGGTKVEIK
notes: IgG1/Cκ
B11 was tested, and the Kd was 5.87 nM, the koff was 0.000603 s⁻¹ and the kon was 103000 M⁻¹ s⁻¹.

B12: 2126-Hu-H24 (antibody, IgG1, V domains shown)
VH: QVQLVQSGSELKKPGASVKVSCKASGYTFTDYAMHWVRQAPGQGLEWMGWINTETGEPTYADDFKGRFVFSLDTSVSTAYLQISSLKAEDTAVYFCVRVGRYDYAMDYWGQGTTVTVSS
VL: DIQMTQSPSSLSASVGDRVTITCKASQDVYTAVAWYQQKPGKAPKLLINSASYRYTGVPSRFSGSGSGTDFTLTISSLQPEDFATYYCQQHYSTPPTFGGGTKVEIK
notes: IgG1/Cκ
In the case of B12, the Kd is reported as 7.7 nM, the koff is reported as 0.00083 s⁻¹ and the kon is reported as 108000 M⁻¹ s⁻¹.

B13: 2126-Hu-H23 (antibody, IgG1, V domains shown)
VH: QVQLVQSGSELKKPGASLKVSCKASGYTFTDYSMHWVRQAPGQGLEWMGWINTETGEPTYADDFKGRFVFSLDTSVSTAYLQISSLKAEDTAVYFCVRVGRYDYAMDYWGQGTTVTVSS
VL: DIQMTQSPSSLSASVGDRVTITCKASQDVYTAVAWYQQKPGKAPKLLINSASYRYTGVPSRFSGSGSGTDFTLTISSLQPEDFATYYCQQHYSTPPTFGGGTKVEIK
notes: IgG1/Cκ
B13 showed a Kd of 5.9 nM, a koff of 0.000623 s⁻¹ and a kon of 106000 M⁻¹ s⁻¹.

B14: 2126-Hu-H31 (antibody, IgG1, V domains shown)
VH: QVQLVQSGSELKKPGASVKVSCKASGYTFTDYSMHWVRQAPGQGLEWMGWINTETGDPTYADDFKGRFVFSLDTSVSTAYLQISSLKAEDTAVYFCVRVGRYDYAMDYWGQGTTVTVSS
VL: DIQMTQSPSSLSASVGDRVTITCKASQDVYTAVAWYQQKPGKAPKLLINSASYRYTGVPSRFSGSGSGTDFTLTISSLQPEDFATYYCQQHYSTPPTFGGGTKVEIK
notes: IgG1/Cκ
Binder B14 has a Kd of 8.81 nM, a koff of 0.000942 s⁻¹ and a kon of 107000 M⁻¹ s⁻¹.
